According to patent US20040072268A1 (published 2004):
Blank lines part the entries; values can stand above or below the binder they belong to.

What was measured:
[1] = molecular target: T1, truncated BRCA1 (1-509) (Homo sapiens (Human), UniProt P38398 1-509); test: affinity purification of the truncated BRCA1 complex from a stable 293-derived cell line (co-purification; may be indirect)
T1 construct: Stably expressed in a 293-derived cell line; keeps the nuclear localization signal and the Ring domain; also called BRCA1 truncation

[2] = molecular target: T2, Jab1/CSN5 subunit of signalosome, recombinant (UniProt Q92905 1-334, limits assumed); test: protein-protein interaction assay with GST-BRCA1 fragments
T2 construct: Produced in recombinant form as a control JAMM domain protein; the construct is not described
T2 sequence (Q92905 whole entry, the tested form may be a part): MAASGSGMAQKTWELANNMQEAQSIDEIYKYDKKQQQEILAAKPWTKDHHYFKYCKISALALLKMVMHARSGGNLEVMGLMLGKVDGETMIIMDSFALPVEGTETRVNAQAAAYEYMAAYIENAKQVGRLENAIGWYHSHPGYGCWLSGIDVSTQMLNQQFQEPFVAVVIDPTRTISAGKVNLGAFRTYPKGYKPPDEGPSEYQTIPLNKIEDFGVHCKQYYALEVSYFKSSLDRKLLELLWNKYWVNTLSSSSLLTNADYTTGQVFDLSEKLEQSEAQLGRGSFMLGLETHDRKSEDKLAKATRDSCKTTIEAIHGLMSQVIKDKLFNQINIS
Method: (§1) Recombinant BRCA1 and BARD1 was purified as described (Chen, et al. (2002) J. Biol. Chem. 277:22085-22092). […] Gluthatione-sepharose beads (Pharmacia, Peapack, N.J.), previously equilibrated in binding buffer, were added to the samples and inverted for an additionnal 2 hours at 4° C. Beads were collected by centrifugation at 2000×g, 30 seconds, washed several times in binding buffer containing 500 mM KCl and 0.1% NP40 and resuspended in 2× SDS loading buffer. Proteins were resolved by SDS-PAGE and western blot analysis was performed using anti-FLAG® antibodies (SIGMA, St. Louis, Mo.).

[3] = molecular target: T3, (His)6-FLAG®-BRCC36 protein (Homo sapiens, UniProt P46736 1-316); test: GST pull-down: 5 µg (His)6-FLAG-BRCC36 with GST-BRCA1 fragment, anti-FLAG western blot
T3 construct: Produced in bacteria and purified; also called recombinant BRCC36; C6.1A; not shown: (His)6 and FLAG tags
T3 sequence (P46736 whole entry, the tested form may be a part): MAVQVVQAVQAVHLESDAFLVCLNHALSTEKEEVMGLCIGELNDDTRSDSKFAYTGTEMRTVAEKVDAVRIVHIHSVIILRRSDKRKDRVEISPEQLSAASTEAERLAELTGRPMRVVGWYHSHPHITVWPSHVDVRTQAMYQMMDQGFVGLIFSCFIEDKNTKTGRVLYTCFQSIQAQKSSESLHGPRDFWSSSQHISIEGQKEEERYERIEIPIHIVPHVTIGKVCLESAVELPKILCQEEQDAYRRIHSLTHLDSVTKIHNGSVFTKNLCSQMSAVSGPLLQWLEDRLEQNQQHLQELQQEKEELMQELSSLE
Method: as §1

B1: BRE (other)
chain: MSPEVALNRISPMLSPFISSVVRNGKVGLDATNCLRITDLKSGCTSLTPGPNCDRFKLHIPYAGETLKWDIIFNAQYPELPPDFIFGEDAEFLPDPSALQNLASWNPSNPECLLLVVKELVQQYHQFQCSRLRESSRLMFEYQTLLEEPQYGENMEIYAGKKNNWTGEFSARFLLKLPVDFSNIPTYLLKDVNEDPGEDVALLSVSFEDTEATQVYPKLYLSPRIEHALGGSSALHIPAFPGGGCLIDYVPQVCHLLTNKVQYVIQGYHKRREYIAAFLSHFGTGVVEYDAEGFTKLTLLLMWKDFCFLVHIDLPLFFPRDQPTLTFQSVYHFTNSGQLYSQAQKNYPYSPRWDGNEMAKRAKGCQGSRDACSPWEQVLAFAVAKTGCKLLQPQRNWPSSRGPPWRASEGERTAQ
notes: also called BRCC45; BRCC45/BRE
- binding result [1]: no binding

B2: GST-BRCA1 fragment F5 (BRCA1 residues 1005-1313) (other)
chain: EHSMSPEREMGNENIPSTVSTISRNNIRENVFKEASSSNINEVGSSTNEVGSSINEIGSSDENIQAELGRNRGPKLNAMLRLGVLQPEVYKQSLPGSNCKHPEIKKQEYEEVVQTVNTDFSPYLISDNLEQPMGSSHASQVCSETPDDLLDDGEIKEDTSFAENDIKESSAVFSKSVQKGELSRSPSPFTHTHLAQGYRRGAKKLESSEENLSSEDEELPCFQHLLFGKVNNIPSQSTRHSTVATECLSKNTEENLLSLKNSLNDCSNQVILAKASQEHHLSEETKCSASLFSSQCSELEDLTANTNTQ
notes: Produced in bacteria; also called fragment 5; not shown: glutathione S-transferase (GST) fusion tag
- binding result [2]: no binding
- binding result [3]: no binding

B3: GST-BRCA1 fragment F3 (BRCA1 residues 502-802) (other)
chain: LKRKRRPTSGLHPEDFIKKADLAVQKTPEMINQGTNQTEQNGQVMNITNSGHENKTKGDSIQNEKNPNPIESLEKESAFKTKAEPISSSISNMELELNIHNSKAPKKNRLRRKSSTRHIHALELVVSRNLSPPNCTELQIDSCSSSEEIKKKKYNQMPVRHSRNLQLMEGKEPATGAKKSNKPNEQTSKRHDSDTFPELKLTNAPGSFTKCSNTSELKEFVNPSLPREEKEEKLETVKVSNNAEDPKDLMLSGERVLQTERSVESSSISLVPGTDYGTQESISLLEVSTLGKAKTEPNKCV
notes: Produced in bacteria; also called fragment 3; not shown: glutathione S-transferase (GST) fusion tag
- binding result [2]: no binding

More lines, now with the values ahead:

- binding result [2]: no binding
B4: GST-BRCA1 fragment F4 (BRCA1 residues 758-1064) (other)
chain: LQTERSVESSSISLVPGTDYGTQESISLLEVSTLGKAKTEPNKCVSQCAAFENPKGLIHGCSKDNRNDTEGFKYPLGHEVNHSRETSIEMEESELDAQYLQNTFKVSKRQSFAPFSNPGNAEEECATFSAHSGSLKKQSPKVTFECEQKEENQGKNESNIKPVQTVNITAGFPVVGQKDKPVDNAKCSIKGGSRFCLSSQFRGNETGLITPNKHGLLQNPYRIPPLFPIKSFVKTKCKKNLLEENFEEHSMSPEREMGNENIPSTVSTISRNNIRENVFKEASSSNINEVGSSTNEVGSSINEIGSS
notes: Produced in bacteria; also called fragment 4; not shown: glutathione S-transferase (GST) fusion tag

- binding result [2]: no binding
- binding result [3]: no binding
B5: GST-BRCA1 fragment F2 (BRCA1 residues 260-553) (other)
chain: KYQGSSVSNLHVEPCGTNTHASSLQHENSSLLLTKDRMNVEKAEFCNKSKQPGLARSQHNRWAGSKETCNDRRTPSTEKKVDLNADPLCERKEWNKQKLPCSENPRDTEDVPWITLNSSIQKVNEWFSRSDELLGSDDSHDGESESNAKVADVLDVLNEVDEYSGSSEKIDLLASDPHEALICKSERVHSKSVESNIEDKIFGKTYRKKASLPNLSHVTENLIIGAFVTEPQIIQERPLTNKLKRKRRPTSGLHPEDFIKKADLAVQKTPEMINQGTNQTEQNGQVMNITNSGH
notes: Produced in bacteria; also called fragment 2; not shown: glutathione S-transferase (GST) fusion tag

- binding result [2]: no binding
B6: GST-BRCA1 fragment F1 (BRCA1 residues 1-324) (other)
chain: MDLSALRVEEVQNVINAMQKILECPICLELIKEPVSTKCDHIFCKFCMLKLLNQKKGPSQCPLCKNDITKRSLQESTRFSQLVEELLKIICAFQLDTGLEYANSYNFAKKENNSPEHLKDEVSIIQSMGYRNRAKRLLQSEPENPSLQETSLSVQLSNLGTVRTLRTKQRIQPQKTSVYIELGSDSSEDTVNKATYCSVGDQELLQITPQGTRDEISLDSAKKAACEFSETDVTNTEHHQPSNNDLNTTEKRAAERHPEKYQGSSVSNLHVEPCGTNTHASSLQHENSSLLLTKDRMNVEKAEFCNKSKQPGLARSQHNRWAGS
notes: Produced in bacteria; also called fragment 1; not shown: glutathione S-transferase (GST) fusion tag
